Key:
[1] = biological target: pentameric IgM HB617 (UniProt P01591)
[2] = biological target: pentameric IgM 2G12 (UniProt P01591); experiment: ELISA; competition: IgM coated (2 µg/mL); serially diluted ACB or AD2 mixed with a constant sC1q (10 µg/mL final); TBS with 2% PVP, 5 mM CaCl2, 1.5 mM MgCl2; room temperature; bound sC1q detected with anti-C1q HRP; relative IC50: OD at the highest mimetic value as 100%, without mimetic as 0%, approximate values
[3] = biological target: hexameric IgM 2G12 (human); experiment: as above
[4] = biological target: pentameric IgM HB617 (UniProt P01591); experiment: as above

competitive complement activation ELISA, reduction in C4b deposition by ACB against sC1q on coated 5IgM HB617; 8-fold (20% reduction) to 16-fold (w/w) excess of ACB over sC1q [1] | maximal inhibition of sC1q binding [2] | relative IC50 [2] | maximal inhibition of sC1q binding [3] | percent inhibition of sC1q binding at 2.5–20 µg/mL ACB (lower end) [3] | relative IC50 [3] | maximal inhibition of sC1q binding [4] | relative IC50 [4] | Substance
60% | 59% | 1.3 µg/mL | 77% | 67 to 77% | 1.3 µg/mL | 70% | 1.3 µg/mL | C1q mimetic ACB (single-chain globular region of C1q) (from UniProt P02745 115-245; P02747 115-245; P02746 117-253)
– | 23% | 1.3 µg/mL | 47% | – | 0.6 µg/mL | 39% | 1.3 µg/mL | C1q mimetic ACB-AD2 (ACB fused to domain 2 of human serum albumin) (from UniProt P02745 115-245; P02747 115-245; P02746 117-253; P02768 211-403)
